Test results as given in US9090686B2, “Antibodies for the treatment of HIV” (Pierre Fabre Medicament, priority 2009, dated 2015).

B1: 515H7: murine anti-CXCR4 monoclonal antibody; light chain variable domain SEQ ID No. 7, heavy chain variable domain SEQ ID No. 8 (antibody, listed as Mus musculus, V domains shown)
VH: EVNLVESGGGLVQPGGSLRLSCATSGFTFTDNYMSWVRQPPGKALEWLGFIRNKANGYTTDYSASVRGRFTISRDNSQSILYLQMNALRAEDSATYYCARDVGSNYFDYWGQGTTLTVSS
VL: DIVMSQSPSSLAVSAGEKVTMSCKSSQSLFNSRTRKNYLAWYQQKPGQSPKLLIYWASARDSGVPARFTGSGSETYFTLTISRVQAEDLAVYYCMQSFNLRTFGGGTKLEIK
B2: c515H7: chimeric antibody 515H7: murine variable domains fused to human Ckappa and IgG1/IgG2/IgG4 constant domains; isotype tested not stated (antibody, V domains shown)
VH: B1 VH
VL: B1 VL

How the values were obtained:
Format in all cases: cell-based
R5 HIV-1 BaL virus = assay: GHOST cells expressing CD4 and CCR5 infected with R5 HIV-1 BaL virus
Procedure: (§1) In order to determine the specificity of CXCR4 515H7 Mab, we evaluated the anti-HIV-1 activity of this Mab using GHOST cells expressing CD4 and CXCR4 or CCR5.
(§2) This assay is performed in 48 h using either the X4 HIV-1 LAI virus (with Ghost cells expressing CXCR4) or the R5 HIV-1 BaL virus (with Ghost cells expressing CCR5). 500 μl of Ghost cells were plated (2.5 10^5 cells/ml) for 24 h in Dulbecco culture medium supplemented with 10% FCS. Various dilutions of Mab 515H7 were incubated for 1 h at 37° C. and then diluted HIV-1 LAI virus ( 1/10) and HIV-1 BaL virus ( 1/7) were added to the cells for 48h. Cells were submitted to trypsin and washed with PBS 1×. 300 μL of 1.5% paraformaldehyde were added to the cell pellets for 2 h at +4° C. in the dark, in order to fix the cells and to inactivate viruses. GFP-positive cells were analyzed by flow cytometry and inhibition of HIV-1 infection was calculated.
(§3) The percent of inhibition of infected cells was defined as […] with control infected wells with no Mab.

X4 HIV-1 LAI virus = assay: GHOST cells expressing CD4 and CXCR4 infected with X4 HIV-1 LAI virus
Procedure: as §1, §2, §3

[1] = test system: HIV-1 primary isolate UG93067 (dual X4/R5 virus); assay: Neutralization assay, multiple rounds of replication on primary PBMC, isolate UG93067
Procedure: This assay that combines serial dilutions of c515H7 Mab or Maraviroc or combination of both with serial dilutions of virus, analyzes multiple rounds of infection on PBMC (peripheral blood mononuclear cells). Briefly, quadruplicate 25-μl aliquots of serial dilutions (twofold) of c515H7 Mabs or Maraviroc or combination of both were each incubated with 25 μl of serial dilutions of virus in prehydrated 96-well filter plates (1.25-μm pore size, Durapor Dv; Millipore, Molsheim, France). […] On day 7, the presence of p24 in the culture supernatants was measured by ELISA and compared to that of the negative controls (cultures infected with dilutions of virus and maintained in the presence of 10^−6 M zidovudine [AZT]) to determine positive wells. […]
(§4) This assay that combines serial dilutions of hz515H7 Mab or Maraviroc or combination of both with serial dilutions of virus, analyzes multiple rounds of infection on PBMC (peripheral blood mononuclear cells). […] On day 7, the presence of p24 in the culture supernatants was measured by ELISA and compared to that of the negative controls (cultures infected with dilutions of virus and maintained in the presence of 10^−6 M zidovudine [AZT]) to determine positive wells. […]

[2] = test system: HIV-1 primary isolate 89.6 (dual X4/R5 virus); assay: Neutralization assay, multiple rounds of replication on primary PBMC, isolate 89.6; conditions: 90% decrease of viral titer
Procedure: This assay that combines serial dilutions of c515H7 Mab or Maraviroc or combination of both with serial dilutions of virus, analyzes multiple rounds of infection on PBMC (peripheral blood mononuclear cells). Briefly, quadruplicate 25-μl aliquots of serial dilutions (twofold) of c515H7 Mabs or Maraviroc or combination of both were each incubated with 25 μl of serial dilutions of virus in prehydrated 96-well filter plates (1.25-μm pore size, Durapor Dv; Millipore, Molsheim, France). A control titration of the virus (25 μl of RPMI replacing the diluted c515H7 Mabs or Maraviroc) was performed on the same plate as the titrations in the presence of dilutions of the c515H7 Mabs or Maraviroc or combination of both. After 1 h at 37° C., 25 μl of PHA-stimulated PBMC at a concentration of 4×10^6 cells/ml (pool of PHA activated PBMC from five healthy donors) was added to achieve a 75-μl final culture volume of RPMI, 10% fetal calf serum (FCS), and 20 IU of interleukin-2 (IL-2) per ml (R&D System). After 24 h at 37° C., 100 μl of the same culture medium was added. Two washings (200 μl of RPMI each) were performed by filtration on day 4 to remove the c515H7 Mabs and Maraviroc, and 200 μl of fresh culture medium was added. On day 7, the presence of p24 in the culture supernatants was measured by ELISA and compared to that of the negative controls (cultures infected with dilutions of virus and maintained in the presence of 10^−6 M zidovudine [AZT]) to determine positive wells. […]
as §4

| Molecule | inhibition of HIV-1 R5 BaL virus infection in CCR5 expressing Ghost cells (in words) (R5 HIV-1 BaL virus) | inhibition of HIV-1 X4 Lai virus infection in CXCR4 expressing Ghost cells (in words) (X4 HIV-1 LAI virus) | GHOST CXCR4/LAI virus % inhibition of infected cells 80 (X4 HIV-1 LAI virus; IC for 80% inhibition) [µg/mL] | reduction of virus titer by combination of c515H7 and Maraviroc ([1]; 10 μg/ml of each, only the combination reached it) [%] | inhibitory activity of the Mab compared with Maraviroc ([1]; virus UG93067, PBMC) | IC90 of c515H7 with addition of Maraviroc ([2]; Maraviroc at 2 μg/ml added) [µg/mL] | IC90 ([2]; single agent, multiple rounds, day 7 p24 ELISA) [µg/mL] |
| --- | --- | --- | --- | --- | --- | --- | --- |
| B1 | totally inactive | able to inhibit | 0.1 | – | – | – | – |
| B2 | – | – | – | 90 | similar | 0.2 | 2 |
